Laboratory results as given in patent publication US20220204569.

How the values were obtained:
[1] = tested on: ChrocodiLE (TAL-HT x15 GFP fusion) (Xanthomonas (engineered)); settings: FRAP T1/2 68.53 ± 8.45 s (n = 4), live HeLa; nuclear CV 1.1
[2] = tested on: GFP fusion, 0 TAL-repeats (control) (Xanthomonas (engineered)); settings: FRAP T1/2 1.87 ± 0.28 s (n = 3), live HeLa; nuclear CV 0.53
[3] = tested on: TAL-HT x1 GFP fusion (Xanthomonas (engineered)); settings: FRAP T1/2 2.09 ± 0.40 s (n = 5), live HeLa; nuclear CV 0.45, uniform localization as control
[4] = tested on: TAL-HT x12 GFP fusion (Xanthomonas (engineered)); settings: FRAP T1/2 67.84 ± 8.43 s (n = 4), live HeLa; nuclear CV 1.1
[5] = tested on: TAL-HT x2 GFP fusion (Xanthomonas (engineered)); settings: FRAP T1/2 2.91 ± 0.22 s (n = 5), live HeLa; nuclear CV 0.40, uniform localization as control
[6] = tested on: TAL-HT x3 GFP fusion (Xanthomonas (engineered)); settings: FRAP T1/2 6.30 ± 1.86 s (n = 5), live HeLa; nuclear CV 1.2
[7] = tested on: TAL-HT x8 GFP fusion (Xanthomonas (engineered)); settings: FRAP T1/2 30.97 ± 6.79 s (n = 5), live HeLa; nuclear CV 0.87

In the case of HeLa nuclear genomic DNA (chromatin), the FRAP recovery half-time [1] is reported as 68.5 s, the FRAP recovery half-time [2] is reported as 1.87 s and the FRAP recovery half-time [3] is reported as 2.09 s. It also gave an FRAP recovery half-time [4] of 67.8 s, an FRAP recovery half-time [5] of 2.91 s and an FRAP recovery half-time [6] of 6.3 s. For the same substance, the FRAP recovery half-time [7] was 31 s.
